2 proteins from patent US20090162945 can be followed below.

For data set [1], the target named is Synthetic 43-mer histone H3 (1-40) peptide tri-methylated at lysine 27, …-Tyr-Cys-(Ttds)-Lys-biotin.
In data set [2] the target is Synthetic 43-mer histone H3 (1-40) peptide tri-methylated at lysine 9, …(me3)…-Tyr-Cys-(Ttds)-Lys-biotin.
Synthetic 43-mer histone H3 (1-40) peptide tri-methylated at lysine 9, …(me3)…-Tyr-Cys-(Ttds)-Lys-biotin, sequence (chain, as listed by the source): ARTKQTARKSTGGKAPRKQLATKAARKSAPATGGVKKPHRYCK

Synthetic 43-mer histone H3 (1-40) peptide tri-methylated at lysine 27, …-Tyr-Cys-(Ttds)-Lys-biotin, sequence (chain, as listed by the source): as above

B1: Recombinant full-length amino-terminally hexahistidine-tagged human GASC1 (protein)
chain: MEVAEVESPLNPSCKIMTFRPSMEEFREFNKYLAYMESKGAHRAGLAKVIPPKEWKPRQCYDDIDNLLIPAPIQQMVTGQSGLFTQYNIQKKAMTVKEFRQLANSGKYCTPRYLDYEDLERKYWKNLTFVAPIYGADINGSIYDEGVDEWNIARINTVLDVVEEECGISIEGVNTPYLYFGMWKTTFAWHTEDMDLYSINYLHFGEPKSWYAIPPEHGKRLERLAQGFFPSSSQGCDAFLRHKMTLISPSVLKKYGIPFDKITQEAGEFMITFPYGYHAGFNHGFNCAESTNFATVRWIDYGKVAKLCTCRKDMVKISMDIFVRKFQPDRYQLWKQGKDIYTIDHTKPTPASTPEVKAWLQRRRKVRKASRSFQCARSTSKRPKADEEEEVSDEVDGAEVPNPDSVTDDLKVSEKSEAAVKLRNTEASSEEESSASRMQVEQNLSDHIKLSGNSCLSTSVTEDIKTEDDKAYAYRSVPSISSEADDSIPLSTGYEKPEKSDPSELSWPKSPESCSSVAESNGVLTEGEESDVESHGNGLEPGEIPAVPSGERNSFKVPSIAEGENKTSKSWRHPLSRPPARSPMTLVKQQAPSDEELPEVLSIEEEVEETESWAKPLIHLWQTKSPNFAAEQEYNATVARMKPHCAICTLLMPYHKPDSSNEENDARWETKLDEVVTSEGKTKPLIPEMCFIYSEENIEYSPPNAFLEEDGTSLLISCAKCCVRVHASCYGIPSHEICDGWLCARCKRNAWTAECCLCNLRGGALKQTKNNRWAHVMCAVAVPEVRFTNVPERTQIDVGRIPLQRLKLKCIFCRHRVKRVSGACIQCSYGRCPASFHVTCAHAAGVLMEPDDWPYVVNITCFRHKVNPNVKSKACEKVISVGQTVITKHRNTRYYSCRVMAVTSQTFYEVMFDDGSFSRDTFPEDIVSRDCLKLGPPAEGEVVQVKWPDGKLYGAKYFGSNIAHMYQVEFEDGSQIAMKREDIYTLDEELPKRVKARFSTASDMRFEDTFYGADIIQGERKRQRVLSSRFKNEYVADPVYRTFLKSSFQKKCQKRQ
Turning to B1, the “demethylation assay, immunoblotting of the methylation mark” value in data set [1] was “tri-methylated H3K27 and tri-methylated H4K20 appeared to be unaffected by GASC1 treatment”. In data set [2], the “demethylation of H3K9me3 peptide, mass spectrometry” value is “the majority of H3K9me3 peptide (approximately 80%) was converted to di- and mono-methylated H3-K9 after incubation of with GASC1”; the “formaldehyde release (demethylation-FDH-coupled assay)” value is “recombinant His-tagged GASC1 released formaldehyde”; the “in vitro demethylation of synthetic peptide, western blotting” value was “Following 30 minutes incubation of pure tri-methylated H3K9 with GASC1 almost all tri-methyl H3K9 was converted to di- and mono-methyl H3K9”.

B2: Recombinant full-length histidine-tagged human JMJD2a (protein)
chain: MASESETLNPSARIMTFYPTMEEFRNFSRYIAYIESQGAHRAGLAKVVPPKEWKPRASYDDIDDLVIPAPIQQLVTGQSGLFTQYNIQKKAMTVREFRKIANSDKYCTPRYSEFEELERKYWKNLTFNPPIYGADVNGTLYEKHVDEWNIGRLRTILDLVEKESGITIEGVNTPYLYFGMWKTSFAWHTEDMDLYSINYLHFGEPKSWYSVPPEHGKRLERLAKGFFPGSAQSCEAFLRHKMTLISPLMLKKYGIPFDKVTQEAGEFMITFPYGYHAGFNHGFNCAESTNFATRRWIEYGKQAVLCSCRKDMVKISMDVFVRKFQPERYKLWKAGKDNTVIDHTLPTPEAAEFLKESELPPRAGNEEECPEEDMEGVEDGEEGDLKTSLAKHRIGTKRHRVCLEIPQEVSQSELFPKEDLSSEQYEMTECPAALAPVRPTHSSVRQVEDGLTFPDYSDSTEVKFEELKNVKLEEEDEEEEQEAAALDLSVNPASVGGRLVFSGSKKKSSSSLGSGSSRDSISSDSETSEPLSCRAQGQTGVLTVHSYAKGDGRVTVGEPCTRKKGSAARSFSERELAEVADEYMFSLEENKKSKGRRQPLSKLPRHHPLVLQECVSDDETSEQLTPEEEAEETEAWAKPLSQLWQNRPPNFEAEKEFNETMAQQAPHCAVCMIFQTYHQVEFGGFNQNCGNASDLAPQKQRTKPLIPEMCFTSTGCSTDINLSTPYLEEDGTSILVSCKKCSVRVHASCYGVPPAKASEDWMCSRCSANALEEDCCLCSLRGGALQRANDDRWVHVSCAVAILEARFVNIAERSPVDVSKIPLPRFKLKCIFCKKRRKRTAGCCVQCSHGRCPTAFHVSCAQAAGVMMQPDDWPFVVFITCFRHKIPNLERAKGALQSITAGQKVISKHKNGRFYQCEVVRLTTETFYEVNFDDGSFSDNLYPEDIVSQDCLQFGPPAEGEVVQVRWTDGQVYGAKFVASHPIQMYQVEFEDGSQLVVKRDDVYTLDEELPKRVKSRLSVASDMRFNEIFTEKEVKQEKKRQRVINSRYREDYIEPALYRAIME
B2: the “demethylation of synthetic H3K9 peptides, western blotting” value in data set [2] was “GASC1 and its homolog JMJD2A appeared to have a comparable ability to demethylate synthetic H3K9 substrates”.
